From patent publication US20230105457A1, “Immunogenic Compounds For Treatment Of Adrenal Cancer” (ENTEROME S.A., priority 2019, published 2023) come the findings set out here.

Data set [1] has as its target HLA-A*0201 molecule expressed on human tumor cell line T2 (human). In words: T2 cell HLA-A2 stabilisation, FACS; 20% of signal of HIV pol 589-597 at 100 µM.
For data set [2] the target is unchanged. As to the kind of experiment: T2 cell HLA-A2 stabilisation, FACS; peptide at 0.1 µM.
The target is the same in data set [3]. As to the kind of experiment: T2 cell HLA-A2 stabilisation, FACS; peptide at 1 µM.
The target is the same in data set [4]. In words: T2 cell HLA-A2 stabilisation, FACS; peptide at 10 µM.
Data set [5] relates to T2 cell lines loaded with bacterial peptide. In words: Cytotoxic assay of expanded peptide-specific CD8+ T cells (Example 14). The data set is classed as cell-based, human. The note with it: T cell clones expanded in vitro; flow cytometry readout. The source says:
CD8+ T cells expanded per above were used to perform cytotoxic assays in presence of different ratios of target and effector cells to assess their cytotoxic capacity, using flow cytometry readout. Target cells were T2 cell lines loaded with bacterial peptide. Negative control was T2 cells unloaded and T2 cells loaded with irrelevant peptide.
(In general: In flow cytometry, cells or beads pass a laser one at a time.)

In data set [6] the target is T1, HLA-A*0201 molecule expressed on human tumor cell line T2 (human).
T1 construct: surface HLA-A2 read with anti-HLA-A2 antibody BB7.2-PE by FACS; also called HLA-A2
As to the kind of experiment: T2 cell HLA-A2 stabilisation, FACS.

Ends that are not written are not given here.

reference peptide HIV pol 589-597 had a Concentration of peptide that induces 20% of HLA-A2 expression in data set [1] of 0.85 µM. Also, the mean relative fluorescence intensity (relative (HIV peptide = 100)) came to 2.4 in data set [2], 22.1 in data set [3] and 84.7 in data set [4].
For FLPFGFILPV [IL13RA2-L], in data set [5], the “Cytotoxic capacity of peptide-specific human T cell clones (in words)” value is on record as “have the capacity to kill T2 cells loaded with the bacteria peptide”.
Consider YLYTFLIST [IL13RA2-B2 (SEQ ID NO: 192, Example 3)], for which the binding result in data set [6] is “binds”.
